Data reported in PMC5824887, “A family of unconventional deubiquitinases with modular chain specificity determinants” (Nature Communications, 2018).

Experiments:
[1] = molecular target: T1, propargylated ubiquitin (Ub-PA) (UniProt P0CG48 1-75, propargylamine coupled to the C-terminus of ubiquitin 1-75); test: suicide probe reaction (covalent adduct, SDS-PAGE, Coomassie); DUB prediluted to 10 µM, combined 1:1 with 100 µM probe in 20 mM TRIS pH 7, 150 mM NaCl, 10 mM DTT; 16 h at 4 °C; shifted band on Coomassie-stained gel; conditions: both partners purified
[2] = molecular target: T1, propargylated ubiquitin (Ub-PA); test: crystal structure; covalent complex of ZUFSP^232-578 and Ub-PA (100 µM + 200 µM, 18 h, 4 °C, SEC); crystals from 0.2 M sodium malonate pH 5, 20% PEG 3350, 4 °C; conditions: both partners purified

Binder	binding result [1]	binding result [2]
human ZUFSP, full length, bacterially expressed (enzyme, UniProt Q96AP4 1-578, looked up, Zn-finger and UFSP domain protein (ZUFSP), human, cloned from HEK293 cDNA; also called ZUP1; C6orf113; source: E. coli Rosetta (DE3)pLysS, purified (HisTrap, tag removal with Senp1, SEC); not shown: His6, N-terminal, cleaved; Smt3, N-terminal, cleaved) MLSCNICGETVTSEPDMKAHLIVHMESEIICPFCKLSGVNYDEMCFHIETAHFEQNTLERNFERINTVQYGTSDNKKDNTLQCGMEVNSSILSGCASNHPKNSAQNLTKDSTLKHEGFYSENLTESRKFLKSREKQSSLTEIKGSVYETTYSPPECPFCGKIEEHSEDMETHVKTKHANLLDIPLEDCDQPLYDCPMCGLICTNYHILQEHVDLHLEENSFQQGMDRVQCSGDLQLAHQLQQEEDRKRRSEESRQEIEEFQKLQRQYGLDNSGGYKQQQLRNMEIEVNRGRMPPSEFHRRKADMMESLALGFDDGKTKTSGIIEALHRYYQNAATDVRRVWLSSVVDHFHSSLGDKGWGCGYRNFQMLLSSLLQNDAYNDCLKGMLIPCIPKIQSMIEDAWKEGFDPQGASQLNNRLQGTKAWIGACEVYILLTSLRVKCHIVDFHKSTGPLGTHPRLFEWILNYYSSEGEGSPKVVCTSKPPIYLQHQGHSRTVIGIEEKKNRTLCLLILDPGCPSREMQKLLKQDIEASSLKQLRKSMGNLKHKQYQILAVEGALSLEEKLARRQASQVFTAEKIP	binds	
Mug105 from the fission yeast Schizosaccharomyces pombe (enzyme, S. pombe, UniProt O13979 1-244, looked up, Mug105, S. pombe, cloned from genomic DNA; consists only of the core catalytic domain; source: E. coli Rosetta (DE3)pLysS, purified (HisTrap, tag removal with Senp1, SEC); not shown: His6, N-terminal, cleaved; Smt3, N-terminal, cleaved) MSKCLQQLKRQLQHFGIDGCSLADGDIDYFFTVTGIDRGWGCGWRNIQMLISWLQYTNPNWFKRNFSSGNYEINSLQSLLLSAWMKGIDAEGYAQLGDNLHGKWIGATEVYSLFTGLFVNVALVDFDFRSEASASNALFLYVKKHFESSNDTSNVSPCYLQFQGHSIIIIGFCSSLETLVVLDPDRYQSVQKKFVNIADFNHCYMRKKRSLKFSQFQLVHFKQNIFLNDFSSKLEVRSTRISDF	binds	
ZUFSP^232-578 (domain or fragment, human, UniProt Q96AP4 232-578, looked up, In the crystal the catalytic Cys-360 is covalently coupled to Ub-PA; also called the construct used for crystallization; source: E. coli Rosetta (DE3)pLysS, purified (HisTrap, tag removal with Senp1, SEC); not shown: His6, N-terminal, cleaved; Smt3, N-terminal, cleaved) GDLQLAHQLQQEEDRKRRSEESRQEIEEFQKLQRQYGLDNSGGYKQQQLRNMEIEVNRGRMPPSEFHRRKADMMESLALGFDDGKTKTSGIIEALHRYYQNAATDVRRVWLSSVVDHFHSSLGDKGWGCGYRNFQMLLSSLLQNDAYNDCLKGMLIPCIPKIQSMIEDAWKEGFDPQGASQLNNRLQGTKAWIGACEVYILLTSLRVKCHIVDFHKSTGPLGTHPRLFEWILNYYSSEGEGSPKVVCTSKPPIYLQHQGHSRTVIGIEEKKNRTLCLLILDPGCPSREMQKLLKQDIEASSLKQLRKSMGNLKHKQYQILAVEGALSLEEKLARRQASQVFTAEKIP		binds
